{"source": "paper PMC7112951", "about": "“Structures of the ATP-fueled ClpXP proteolytic machine bound to protein substrate” (eLife, 2020)", "proteins": {"B1": {"name": "one ClpX^∆N E185Q subunit (unit) of the single-chain pseudohexamer (domain or fragment)", "chain": "not shown", "notes": "ClpX, E. coli K12, residues 62-424 (ClpX^∆N); In the sample the six units are joined on one chain by six-residue linkers; written alone for the contacts between neighbouring units; also called ClpX^∆N subunit; subunits A-F; source: E. coli strain ER2566, purified, as part of the single-chain pseudohexamer m1"}}, "target": "the molecule itself", "assay": "cryo-EM structure; ClpX^∆N pseudohexamer 4 µM and ClpP14 1.8 µM (2 µM in the results) in EM buffer (20 mM HEPES, pH 7.5, 100 mM KCl, 25 mM MgCl2, 5 mM ATPγS), 5 min at 25°C before vitrification; doubly capped complexes analysed"}
{"protein": "B1", "values": [{"measurement": "stoichiometry N", "value": 6}]}
